# Where a chain is given by its changes, count along the chain named. Where two headings read alike, the source gives them in different places.
# B1: CV2-9 (antibody, V domains shown)
# VH: EVQLVESGGGLIQPGGSLRLSCAASGFTVSSNYMTWVRQAPGKGLEWVSIIYSGGSTYYADSVKGRFTISRDNSKNTLYLQMNSLRAEDTAVYYCAAGYYDSINWGQGTLVTVPS
# VL: DIQMTQSPSTLSASVGDRVTITCRASQSISTWLAWYQQKPGKAPKLLIYKASNLESGVPSRFSGSGSGTEFTLTISSLQPDDFATYYCQQYYTYSWTFGQGTKLEIKR
# notes: expressed as IgG
# B2: CV2-21 (antibody, V domains shown)
# VH: QVQLVQSGAEVKKPGASVKVSCKAFGYTFTKNGINWVRQAPGQGLEWMGWISPNNGYTNFAQKFQGRATMTSDTSTSTAYMELRSLRSDDTAVYYCARVRVDYDSSGYDAYYYHLDVWGQGTTVTVSS
# VL: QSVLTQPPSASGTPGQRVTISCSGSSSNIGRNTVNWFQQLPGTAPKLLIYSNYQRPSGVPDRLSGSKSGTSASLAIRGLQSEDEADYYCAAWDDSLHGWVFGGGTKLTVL
# notes: expressed as IgG
# B3: CV2-18 (antibody, V domains shown)
# VH: QVQLVQSGAEVKKPGSSVKVSCKASGGTFSSYAISWVRQAPGQGLEWMGGIIPIFGTANYAQKFQGRVTITADESTSTAYMELSSLRSEDTAVYYCARVGAYDSSGYYQDLWGRGTLVTVSS
# VL: EIVLTQSPATLSLSPGERATLSCRASQSVSSYLAWYQQKPGQAPRLLIYDASNRATGIPARFSGSGSGTDFTLTISSLEPEDFAVYYCQQRSNWPPVITFGQGTRLEIK
# notes: expressed as IgG
# B4: CV2-5 (antibody, V domains shown)
# VH: QVQLVQSGAEVKKPGSSVKVSCKASGGTFSSYAISWVRQAPGQGLEWMGGIIPIFGTTNNAQKFQGRVTLTADESTSAAYMELSSLRSEDTAVYYCARIEPYASTGYTFDYWGQGTLVTVSS
# VL: B3 VL with Y32F, V97R
# notes: expressed as IgG
# B5: CV2-16 (antibody, V domains shown)
# VH: QVQLVQSGAEVKKPGSSVKVSCKASGGTFSSFAFIWVRQAPGQGLEWMGGIIPIFGTAKYTQKFQGRVTITADESTSTAYMELSSLRSEDTAVYYCARVSYYDSSGFYTDYWGQGTLVTVSS
# VL: B3 VL with E1D, L4M, Y32F, V97E, I98Y, R105K
# notes: expressed as IgG
# B6: CV2-15 (antibody, V domains shown)
# VH: QVQLVQSGAEVKKPGSSVKVSCKTSGGIFSSYAISWVRQAPGQGLEWMGGIIPIFGTANYAQKFQGRVTITADESTSTAYMELSSLRSEDTAVYYCASYSGFDDYGHYRNYWGQGTLVTVSS
# VL: B3 VL with E1D, L4M, S7T, S31R, S92Y, V97E, I98L, Q102G, R105K, L106V
# notes: expressed as IgG
# B7: CV2-4 (antibody, V domains shown)
# VH: B3 VH with S35T, A97V, G100A, A101L, Y108S, Q109P, L111Y, R114Q
# VL: B3 VL with S31N, Y32F, Q90H, V97G
# notes: expressed as IgG
# B8: CV2-12 (antibody, V domains shown)
# VH: QVQLVESGGGVVQPGRSLRLSCAASGFTFSSYGIHWVRQAPGKGLEWVAVISYDGINKYYADSVKGRFTISRDNSKNTLYLHMNSLRAEDTAVYYCARPNSGSYHSYFDYWGQGTLVTVSS
# VL: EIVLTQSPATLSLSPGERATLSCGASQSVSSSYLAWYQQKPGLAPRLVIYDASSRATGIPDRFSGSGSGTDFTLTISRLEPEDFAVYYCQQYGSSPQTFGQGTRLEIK
# notes: expressed as IgG
# B9: CV2-19 (antibody, V domains shown)
# VH: B8 VH with G33A, I34M, V50I, H82Q, A88V, N100G, S101G, H105Y, S106G, Y107P
# VL: QSALTQPASVSGSPGQSITISCTGTSSDVGSYNYVSWYQQHPGKAPKLMIYEVSNRPSGVSNRFSGSKSGNTASLTLSGLQAEDEADYYCSSYTSSSTLYVFGTGTKVTVL
# notes: expressed as IgG
# B10: CV2-13 (antibody, V domains shown)
# VH: EVQLVESGGGLVQPGGSLRLSCAASGFTFSSYEMNWVRQAPGKGLEWVSYISSSGSTIYYADSVKGRFTISRDNAKNSLYLEMNSLRAEDTAVYYCASTSDSGSYYIHWYFDLWGRGTLVTVSS
# VL: B9 VL with Y34L, E52D, N55K, L77I, S91C, Y93H, T94A, S95G, L99S, V101I
# notes: expressed as IgG
# B11: CV2-17 (antibody, V domains shown)
# VH: EVQLVESGGGLVQPGGSLRLSCSASGFTFSSYAMHWVRQAPGKGLEYVSTISTNGGSTYYADSVKGRFTISRDNSKNTLYLQMSSLRAEDTAVYYCVLGYCSSTSCQHFDYWGQGTLVTVSS
# VL: B9 VL with S31A, L77I, L99P
# notes: expressed as IgG
# B12: CV8 (antibody, V domains shown)
# VH: QVQLVQSGAEVKKPGASVKVSCKASGYTFTSYGISWVRQAPGQGLEWMGWISAYNGNTNYAQKLQGRVTMTTDTSTSTAYMELRSLRSDDTAVYYCARLVPTWASYYDFWSGYPGGYGMDVWGQGTTVTVSS
# VL: not shown
# notes: expressed as IgG
# B13: CV2-11 (antibody, V domains shown)
# VH: EVQLVESGGGLVKPGGSLRLSCAASGFTFSSYSMNWVRQAPGKGLEWVSSISSSRSYIYYADSVKGRFTISRDNAKNSLYLQMNSLRAEDTAVYYCASNPAADPNTYYYYGMDVWGQGTTVTVSS
# VL: QPVLTQPPSASASLGASVTLTCTLSSGYSNYKVDWYQQRPGKGPRFVMRVGTGGIVGSKGDGIPDRFSVLGSGLNRYLTIKNIQEEDESDYHCGADHGSGSNFVGVFGGGTKLTVL
# notes: expressed as IgG
# B14: CV2-10 (antibody, V domains shown)
# VH: QVQLQESGPGLVKPSGTLSLTCAVSGGSISSSTWWSWVRQPPGKGLEWIGEIYHSGSTNYNPSLKSRVTISVDKSKNQFSLKLSSVTAADTAVYYCARSASNYFGYYYYGMDVWGQGTTVTVSS
# VL: EIVLTQSPATLSLSPGERATLSCRASQSVSSQLAWYQQKPGQAPRLLISDASNRATGIPARFSGSGSGTDFTLTISSLEPEDFAVYYCQQRSNWPRTFGQGTKVEIK
# notes: expressed as IgG
# B15: CV2-14 (antibody, V domains shown)
# VH: QVQLVESGGGVVQPGRSLRLSCAASGFTFSSFALHWVRQAPGKGLEWVAVVSYDGSNKYYADSVKGRFTISRDNSKNTLYLQMNSLRAEDTAAYYCARSMGGNYADYFDYWGQGTLVTVSS
# VL: B14 VL with S30T, S31N, Q32Y, S49Y, R96N, K103R, V104L
# notes: expressed as IgG
# B16: CV2-8 (antibody, V domains shown)
# VH: QVQLVESGGGVVQPGRSLRLSCGASGFIFSSYAMHWVRQAPGKGLEWVAVISYDGNNKYYADSVKGRFTISRDNSKNTLYLQMNSLRAEDTAVYYCARPYSGTYFSAFDIWGQGTMVTVSS
# VL: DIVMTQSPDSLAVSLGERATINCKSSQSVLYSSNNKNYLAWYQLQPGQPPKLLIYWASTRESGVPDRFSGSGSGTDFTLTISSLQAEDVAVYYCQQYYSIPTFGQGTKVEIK
# notes: expressed as IgG
# B17: CV2-6 (antibody, V domains shown)
# VH: QVQLVESGGGVVQPGRSLRLSCAASGFTFSIYAIHWVRQAPGKGLEWVAVISYDGINKYYADAVKGRFTISRDNSKNTLFLQMNSLRTEDTAVYYCARAMGGNYFHAFDIWGQGTMVTVSS
# VL: EIVLTQSPGTLSLSPGERATLSCRASQSVSSSYLAWYQRKPGQAPRLLIYGASNRATGIPDRFSGSGSGTDFTLTISRLEPEDFAVFYCQQYGSSPWTFGQGTKVEIK
# notes: expressed as IgG
# Tests used:
# Test in all cases: BLI, mAb on anti-human Fc probe, antigen in solution
# [1] = target: T1, SARS-CoV-2 receptor binding domain (RBD) (SARS-CoV-2, UniProt P0DTC2 319-591)
# [2] = target: T1, SARS-CoV-2 receptor binding domain (RBD); remark: listed apart in the source
# [3] = target: T1, SARS-CoV-2 receptor binding domain (RBD); remark: listed apart in the source
# [4] = target: T1, SARS-CoV-2 receptor binding domain (RBD); remark: listed apart in the source
# [5] = target: T1, SARS-CoV-2 receptor binding domain (RBD); remark: listed apart in the source
# [6] = target: T1, SARS-CoV-2 receptor binding domain (RBD); remark: listed apart in the source
# [7] = target: T1, SARS-CoV-2 receptor binding domain (RBD); remark: listed apart in the source
# [8] = target: T1, SARS-CoV-2 receptor binding domain (RBD); remark: listed apart in the source
# [9] = target: T1, SARS-CoV-2 receptor binding domain (RBD); remark: listed apart in the source
# [10] = target: T1, SARS-CoV-2 receptor binding domain (RBD); remark: listed apart in the source
# [11] = target: T1, SARS-CoV-2 receptor binding domain (RBD); remark: listed apart in the source
# [12] = target: T1, SARS-CoV-2 receptor binding domain (RBD); remark: listed apart in the source
# [13] = target: T1, SARS-CoV-2 receptor binding domain (RBD); remark: listed apart in the source
# [14] = target: T1, SARS-CoV-2 receptor binding domain (RBD); remark: listed apart in the source
# [15] = target: T1, SARS-CoV-2 receptor binding domain (RBD); remark: listed apart in the source
# [16] = target: T1, SARS-CoV-2 receptor binding domain (RBD); remark: listed apart in the source
# [17] = target: T1, SARS-CoV-2 receptor binding domain (RBD); remark: listed apart in the source
binder,measurement,setting,value
B1,binding result,[1],no binding
B2,binding result,[2],no binding
B3,binding result,[3],no binding
B4,binding result,[4],no binding
B5,binding result,[5],no binding
B6,binding result,[6],no binding
B7,binding result,[7],no binding
B8,binding result,[8],no binding
B9,binding result,[9],no binding
B10,binding result,[10],no binding
B11,binding result,[11],no binding
B12,binding result,[12],no binding
B13,binding result,[13],no binding
B14,binding result,[14],no binding
B15,binding result,[15],no binding
B16,binding result,[16],no binding
B17,binding result,[17],no binding

# Reference: patent US20230212266A1 (FRED HUTCHINSON CANCER CENTER, published 2023)
